{"source": "paper PMC9517163", "target": "minke whale ACE2, mFc-tagged (minke whale)", "assay": "SPR"}
{"substance": "SARS-CoV-2 Omicron BA.1 receptor-binding domain (RBD) (from UniProt P0DTC2) (domain or fragment)", "values": [{"measurement": "Kd", "value": 254, "unit": "nM"}]}
